Experimental data: publication PMC10214526 (ACS Central Science, 2023)
Where no end group is shown, it is not given here.

B1: Cyclic peptide 6 (peptide)
chain: LEAIIEEDDGDGGWVDTYHC
modifications: thioether (positions not given here); not fully specified (bridges); also: cyclized by selective cysteine alkylation, partner of Cys not given here
B2: fluorescein-modified truncated (103–111) LIR^ATG3 peptide (peptide, UniProt Q9NT62 103-111, looked up)
peptide: GDGGWVDTY
modifications: also: fluorescein, position not given here
notes: ATG3, human, amino acids G103-Y111 including the core LIR motif; also called truncated peptide
B3: LIR (L94-H112) peptide 5 (peptide, UniProt Q9NT62 94-112, looked up)
peptide: LEAIIEEDDGDGGWVDTYH
notes: ATG3, human, LIR motif stretch L94-H112; also called linear LIR^ATG3 peptide 5; source: synthetic peptide (chemically prepared)

Key:
[1] = biological target: T1, GABARAP(ΔG116)–NHNH methyl-fumarate 2 (UniProt O95166 1-115, C-terminal acyl hydrazide: -NHNH methyl fumarate (mimics the native glycine G116)); experiment: cross-linking; competition: probe 2 (15 μM) incubated with ATG3 C1 in the presence of increasing amounts of LIR^ATG3 peptide; GABARAP–ATG3 C1 complex quantified by gel densitometry, normalized to the reaction without peptide; IC50 by nonlinear regression; settings: both partners purified
T1 construct: GABARAP; GABARAP(ΔG116): the C-terminal glycine G116 is deleted, so the chain ends at residue 115; it may fit a chain without the first methionine (surmised); also called probe 2; GABARAP methyl fumarate; not shown: Mxe GyrA intein, C-terminal, cleaved

GABARAP = biological target: T2, GABARAP (UniProt O95166 2-116); experiment: fluorescence polarisation; fluorescein-modified LIR^ATG3 peptide (linear, cyclized or truncated 103–111) with GABARAP or LC3A; triplicates; KD by nonlinear regression; settings: both partners purified
T2 construct: GABARAP as used in fluorescence polarization and in the cocrystal
T2 sequence (O95166 2-116): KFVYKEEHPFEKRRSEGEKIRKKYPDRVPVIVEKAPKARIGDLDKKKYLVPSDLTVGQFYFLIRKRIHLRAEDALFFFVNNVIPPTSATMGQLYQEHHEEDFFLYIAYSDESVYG

T1 sequence (O95166 1-115, stated change not applied): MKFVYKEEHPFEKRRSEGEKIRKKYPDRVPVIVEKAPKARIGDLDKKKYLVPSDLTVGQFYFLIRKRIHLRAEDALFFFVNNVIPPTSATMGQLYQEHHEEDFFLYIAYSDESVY

Binder	IC50 [1]	binding result (GABARAP)
B1	24 µM	
B2		binds
B3	104 µM	
